{
  "source": "patent US6328728A",
  "about": "“Composition and method for enhancing electrotransport agent delivery” (Alza Corporation, priority 1997, dated 2001)",
  "experiment": "Electrophoretic mobility by capillary zone electrophoresis",
  "format": "physicochemical",
  "conditions": "for Electrophoretic Mobility (Average) / Electrophoretic Mobility: 32° C.",
  "protocol": "Since electrophoretic mobility (ie, the ability of a drug/agent to migrate in an electric field) is an important aspect of electrotransport drug delivery, the electrophoretic mobility of the drug/agent being delivered is predictive of suitability for transdermal electrotransport delivery. Electrophoretic mobility measurements were performed using a capillary zone electrophoresis instrument (model 2100 P/ACE instrument, Beckman Instruments, Inc., Palo Alto, Calif.). At acid pH values DB-WAX, DB-1, DB-17 (J&W Scientific, Folsom, Calif.) capillary columns were used either with 50 or 100 micron internal diameter column and CElect H75 (Supelco, Bellefonte, Pa.) capillary column with a 75 micron internal diameter. At alkaline pH values uncoated silica capillaries of length 57 cm with an internal diameter of 75 microns were used with an applied voltage of 20 kV. If any electroosmotic flow was present, it was detected using a neutral marker such as 0.01% benzyl alcohol (SIGMA, St. Louis, Mo.) or 1/500 mesityl oxide (Applied Biosystems, Foster City, Calif.). The optimum voltage was determined by doing an Ohm's Law test on each buffer and capillary system. The temperature of the capillary columns was set at 32° C. and a two second pressure injection was done. A UV detector was used to monitor peptide and markers at either 214 or 280 nm.\nVoltage injection had to be used for the 27 cm length column. The voltage applied varied depending on the capillary length.\nThe following equation was used to determine electrophoretic mobility μ. [formula]\nIf the electroosmotic flow is detected, the following equation can be used.\nμpeptide =μtotal -μneutral marker\nThe measurement procedures described above were conducted on an aqueous solution of the protein insulinotropin, with TWEEN® 20 (MW=1126 g/mol) as the surfactant, with the following modifications. The insulinotropin donor solution concentration was 0.12 mg/mL. One test was run in 10 mM sodium borate at pH 9.0 and another test in 10 mM sodium chloroacetate at pH 3.5.\nFractional changes (%δ) are defined as the difference between the reading at a given surfactant concentration (Ec) minus the reading at zero surfactant (E0), the quantity divided by the difference between the reading at saturated surfactant concentration (Es) minus the reading at zero surfactant (E0), i. e. %δ=(Ec -E0)/(Es-E0).\nThe measurement procedures described earlier were conducted in this example on an aqueous solution containing insulinotropin as the agent and dodecyl trimethyl ammonium chloride (DTAC) as the ionic surfactant with the following modifications. […]\nThe same measurement procedures were conducted using an aqueous solution of salmon calcitonin as the agent and the zwitterionic dodecyl sulfobetaine as the surfactant with the following modifications. The temperature was initially 32° C., the surfactant concentration was varied up to 30 mM, and the calcitonin concentration was 0.06 to 0.08 mM. Tables 7, 8, and 9 below provide the results obtained in terms of polypeptide ellipticity expressed as a function of zwitterionic surfactant concentration at pH 3.5 in 12 mM sodium chloroacetate (Table 7), 5.0 in 4 mM piperazine HCI (Table 8), and 6.5 in 15 mM sodium cacodylate (Table 9), respectively. Table 8, in addition, provides the results obtained on electrophoretic mobility and HIC retention time in a phenyl superose column at pH 5.0.",
  "key": {"[1]": {"conditions": "pH 3.5, 10 mM sodium chloroacetate, TWEEN 20 0"}, "[2]": {"conditions": "pH 3.5, 10 mM sodium chloroacetate, TWEEN 20 0.133 mM"}, "[3]": {"conditions": "pH 3.5, 10 mM sodium chloroacetate, TWEEN 20 0.266 mM"}, "[4]": {"conditions": "pH 3.5, 10 mM sodium chloroacetate, TWEEN 20 0.515 mM"}, "[5]": {"conditions": "pH 3.5, 10 mM sodium chloroacetate, TWEEN 20 1.00 mM"}, "[6]": {"conditions": "pH 3.5, 10 mM sodium chloroacetate, TWEEN 20 2.28 mM"}, "[7]": {"conditions": "pH 3.5, 10 mM sodium chloroacetate, TWEEN 20 4.44 mM"}, "[8]": {"conditions": "pH 9.0, 10 mM sodium borate, TWEEN 20 0"}, "[9]": {"conditions": "pH 9.0, 10 mM sodium borate, TWEEN 20 0.133 mM"}, "[10]": {"conditions": "pH 9.0, 10 mM sodium borate, TWEEN 20 0.266 mM"}, "[11]": {"conditions": "pH 9.0, 10 mM sodium borate, TWEEN 20 0.515 mM"}, "[12]": {"conditions": "pH 9.0, 10 mM sodium borate, TWEEN 20 1.00 mM"}, "[13]": {"conditions": "pH 9.0, 10 mM sodium borate, TWEEN 20 2.28 mM"}, "[14]": {"conditions": "pH 9.0, 10 mM sodium borate, TWEEN 20 4.44 mM"}, "[15]": {"conditions": "pH 9.0, 10 mM sodium borate, TWEEN 20 8.88 mM"}, "[16]": {"conditions": "pH 9.0, 10 mM sodium borate, TWEEN 20 13.3 mM"}, "[17]": {"conditions": "pH 9.0, 10 mM sodium borate, TWEEN 20 20.0 mg/mL"}, "[18]": {"conditions": "pH 9.0, 10 mM sodium borate, TWEEN 20 25.0 mg/mL"}},
  "data": [
    {"substance": "Insulinotropin: the protein insulinotropin", "values": [
      {"measurement": "Electrophoretic Mobility (Average)", "setting": "pH 3.5, 10 mM sodium chloroacetate, DTAC 0", "result": 1.80, "unit": "cm^2 /V-s × 10^-4"},
      {"measurement": "Electrophoretic Mobility (Average)", "setting": "pH 3.5, 10 mM sodium chloroacetate, DTAC 0.83 mM", "result": 1.82, "unit": "cm^2 /V-s × 10^-4"},
      {"measurement": "Electrophoretic Mobility (Average)", "setting": "pH 3.5, 10 mM sodium chloroacetate, DTAC 1.64 mM", "result": 1.81, "unit": "cm^2 /V-s × 10^-4"},
      {"measurement": "Electrophoretic Mobility (Average)", "setting": "pH 3.5, 10 mM sodium chloroacetate, DTAC 20.0 mM", "result": 3.46, "unit": "cm^2 /V-s × 10^-4"},
      {"measurement": "Electrophoretic Mobility (Average)", "setting": "pH 3.5, 10 mM sodium chloroacetate, DTAC 25.0 mM", "result": 3.33, "unit": "cm^2 /V-s × 10^-4"},
      {"measurement": "Electrophoretic Mobility", "setting": "[1]", "result": -1.8, "unit": "cm^2 /Vs ×10^-4"},
      {"measurement": "Electrophoretic Mobility", "setting": "[2]", "result": -1.72, "unit": "cm^2 /Vs ×10^-4"},
      {"measurement": "Electrophoretic Mobility", "setting": "[3]", "result": -1.58, "unit": "cm^2 /Vs ×10^-4"},
      {"measurement": "Electrophoretic Mobility", "setting": "[4]", "result": -1.32, "unit": "cm^2 /Vs ×10^-4"},
      {"measurement": "Electrophoretic Mobility", "setting": "[5]", "result": -1.14, "unit": "cm^2 /Vs ×10^-4"},
      {"measurement": "Electrophoretic Mobility", "setting": "[6]", "result": -1.08, "unit": "cm^2 /Vs ×10^-4"},
      {"measurement": "Electrophoretic Mobility", "setting": "[7]", "result": -1.01, "unit": "cm^2 /Vs ×10^-4"},
      {"measurement": "Electrophoretic Mobility, fractional change (% δ)", "setting": "[1]", "result": 0},
      {"measurement": "Electrophoretic Mobility, fractional change (% δ)", "setting": "[2]", "result": 0.10},
      {"measurement": "Electrophoretic Mobility, fractional change (% δ)", "setting": "[3]", "result": 0.28},
      {"measurement": "Electrophoretic Mobility, fractional change (% δ)", "setting": "[4]", "result": 0.61},
      {"measurement": "Electrophoretic Mobility, fractional change (% δ)", "setting": "[5]", "result": 0.84},
      {"measurement": "Electrophoretic Mobility, fractional change (% δ)", "setting": "[6]", "result": 0.91},
      {"measurement": "Electrophoretic Mobility, fractional change (% δ)", "setting": "[7]", "result": 1.00},
      {"measurement": "Electrophoretic Mobility", "setting": "[8]", "result": -1.06, "unit": "cm^2 Vs × 10^-4"},
      {"measurement": "Electrophoretic Mobility", "setting": "[9]", "result": -1.05, "unit": "cm^2 Vs × 10^-4"},
      {"measurement": "Electrophoretic Mobility", "setting": "[10]", "result": -1.01, "unit": "cm^2 Vs × 10^-4"},
      {"measurement": "Electrophoretic Mobility", "setting": "[11]", "result": -1.00, "unit": "cm^2 Vs × 10^-4"},
      {"measurement": "Electrophoretic Mobility", "setting": "[12]", "result": -0.89, "unit": "cm^2 Vs × 10^-4"},
      {"measurement": "Electrophoretic Mobility", "setting": "[13]", "result": -0.73, "unit": "cm^2 Vs × 10^-4"},
      {"measurement": "Electrophoretic Mobility", "setting": "[14]", "result": -0.62, "unit": "cm^2 Vs × 10^-4"},
      {"measurement": "Electrophoretic Mobility", "setting": "[15]", "result": -0.61, "unit": "cm^2 Vs × 10^-4"},
      {"measurement": "Electrophoretic Mobility", "setting": "[16]", "result": -0.55, "unit": "cm^2 Vs × 10^-4"},
      {"measurement": "Electrophoretic Mobility", "setting": "[17]", "result": -0.58, "unit": "cm^2 Vs × 10^-4"},
      {"measurement": "Electrophoretic Mobility", "setting": "[18]", "result": -0.53, "unit": "cm^2 Vs × 10^-4"},
      {"measurement": "Electrophoretic Mobility, fractional change (% δ)", "setting": "[8]", "result": 0},
      {"measurement": "Electrophoretic Mobility, fractional change (% δ)", "setting": "[9]", "result": 0.02},
      {"measurement": "Electrophoretic Mobility, fractional change (% δ)", "setting": "[10]", "result": 0.09},
      {"measurement": "Electrophoretic Mobility, fractional change (% δ)", "setting": "[11]", "result": 0.11},
      {"measurement": "Electrophoretic Mobility, fractional change (% δ)", "setting": "[12]", "result": 0.32},
      {"measurement": "Electrophoretic Mobility, fractional change (% δ)", "setting": "[13]", "result": 0.62},
      {"measurement": "Electrophoretic Mobility, fractional change (% δ)", "setting": "[14]", "result": 0.83},
      {"measurement": "Electrophoretic Mobility, fractional change (% δ)", "setting": "[15]", "result": 0.85},
      {"measurement": "Electrophoretic Mobility, fractional change (% δ)", "setting": "[16]", "result": 0.96},
      {"measurement": "Electrophoretic Mobility, fractional change (% δ)", "setting": "[17]", "result": 0.91},
      {"measurement": "Electrophoretic Mobility, fractional change (% δ)", "setting": "[18]", "result": 1.00}
    ]},
    {"substance": "Salmon Calcitonin [reference compound]", "values": [
      {"measurement": "Electrophoretic Mobility", "setting": "pH 5.0, 4 mM piperazine-HCl, dodecyl sulfobetaine 0, calcitonin 0.076 mM", "result": "2.4 × 10^-4 cm^2 /V-sec"},
      {"measurement": "Electrophoretic Mobility", "setting": "pH 5.0, 4 mM piperazine-HCl, dodecyl sulfobetaine 0.83 mM, calcitonin 0.076 mM", "result": "2.3 × 10^-4 cm^2 /V-sec"},
      {"measurement": "Electrophoretic Mobility", "setting": "pH 5.0, 4 mM piperazine-HCl, dodecyl sulfobetaine 1.64 mM, calcitonin 0.075 mM", "result": "2.2 × 10^-4 cm^2 /V-sec"},
      {"measurement": "Electrophoretic Mobility", "setting": "pH 5.0, 4 mM piperazine-HCl, dodecyl sulfobetaine 3.23 mM, calcitonin 0.074 mM", "result": "2.2 × 10^-4 cm^2 /V-sec"},
      {"measurement": "Electrophoretic Mobility", "setting": "pH 5.0, 4 mM piperazine-HCl, dodecyl sulfobetaine 6.25 mM, calcitonin 0.072 mM", "result": "1.7 × 10^-4 cm^2 /V-sec"},
      {"measurement": "Electrophoretic Mobility", "setting": "pH 5.0, 4 mM piperazine-HCl, dodecyl sulfobetaine 7.69 mM, calcitonin 0.071 mM", "result": "1.5 × 10^-4 cm^2 /V-sec"},
      {"measurement": "Electrophoretic Mobility", "setting": "pH 5.0, 4 mM piperazine-HCl, dodecyl sulfobetaine 9.77 mM, calcitonin 0.069 mM", "result": "1.6 × 10^-4 cm^2 /V-sec"},
      {"measurement": "Electrophoretic Mobility", "setting": "pH 5.0, 4 mM piperazine-HCl, dodecyl sulfobetaine 12.4 mM, calcitonin 0.067 mM", "result": "1.4 × 10^-4 cm^2 /V-sec"},
      {"measurement": "Electrophoretic Mobility", "setting": "pH 5.0, 4 mM piperazine-HCl, dodecyl sulfobetaine 18.4 mM, calcitonin 0.062 mM", "result": "0.96 × 10^-4 cm^2 /V-sec"},
      {"measurement": "Electrophoretic Mobility", "setting": "pH 5.0, 4 mM piperazine-HCl, dodecyl sulfobetaine 26.4 mM, calcitonin 0.056 mM", "result": "0.88 × 10^-4 cm^2 /V-sec"}
    ]}
  ]
}
